These are literature values, as cited in publication PMC7704677.

One may read the pKa as the negative logarithm of the acid dissociation constant.

Common to all, as to test: UV-vis
What all share (settings): unphotolysed state; further details not given

The target of one series is Asp85 (UniProt position 98, WARYADWLFTT).
A further series has as its target Asp95 (UniProt position 95, FYRYADWLLTV).
A further series deals with Asp75.
The subject of a further series is Asp89.

As for “Bacteriorhodopsin (HsBR) (Halobacterium salinarum)”, the pKa in the series with Asp85 is given as 2.7.
As to “Thermophilic rhodopsin (TR) (Thermus thermophilus)”, the pKa with Asp95 was 3.4.
In the case of “Anabaena sensory rhodopsin (ASR) (Anabaena (Nostoc) sp.)”, in the series on Asp75, the pKa is 4.0.
On to “Acetabularia rhodopsin I (ARI) (Acetabularia acetabulum)”, for which, in the series with Asp89, the pKa is recorded as 2.7.
